FRET efficiency and stoichiometry N data for five substances are collected here from publication PMC6216019.

Where two headings read alike, the source gives them in different places.

Test [1] concerns the target AcrB-CFP (E. coli) (UniProt P31224). Description: FRET or BRET. Background: In BRET a luciferase serves as donor, and the signal depends on an acceptor being close.
The target is the same in test [2]. Nature of the test: FRET or BRET. This is another data set of the same source.
A further test has as its target AcrB_(P223G) (E. coli) (UniProt P31224). Description: native gel or EMSA. (In general: In EMSA bound probe runs differently from free probe, usually more slowly.)
The target of test [3] is AcrB_(P223G)-CFP (E. coli) (UniProt P31224). Description: FRET or BRET.
Test [4] shares this target. Nature of the test: FRET or BRET. The source holds these as a separate data set.
The target in test [5] is AcrB_(P223G/V225C/A777C) (E. coli) (UniProt P31224). Description: cross-linking.
Test [6] has as its target AcrB_(V225C/A777C) (E. coli) (UniProt P31224). Description: cross-linking.

“AcrB-YPet (from UniProt P31224 1-1049) (natural protein)”: the FRET efficiency was determined as 35% with AcrB-CFP (E. coli) [1] and 50% in the test with AcrB-CFP (E. coli) [2].

As for “AcrB_(P223G) (from UniProt P31224 1-1049) (natural protein)”, in the test with AcrB_(P223G) (E. coli), the stoichiometry N came to 3.

As for “AcrB_(P223G)-YPet (from UniProt P31224 1-1049) (natural protein)”, the FRET efficiency in test [3] stood at 26%; in test [4] it was 22%.

“AcrB_(P223G/V225C/A777C) (from UniProt P31224 1-1049) (natural protein)” yielded a stoichiometry N in test [5] of 3.

In the case of “AcrB_(V225C/A777C) (from UniProt P31224 1-1049) (natural protein)”, in test [6], the stoichiometry N worked out at 3.

For orientation: stoichiometry N means a count of units in the complex or per binding partner.
